Consider seven molecules from patent US20250270319A1.

Changes are numbered by the printed parent chain.

B1: anti-CD33 antibody 6C7H39 (antibody, V domains shown)
VH: EVQLVESGGGLVQPGGSLRLSCAASGFTFSEYDMLWVRQAPGKGLEWVGEIRLKSNNYVTNYAASVKGRFTISRDDTKNSVYLQMNSLKTEDTGVYYCTRAGYYVPFAYWGQGTLVTVSS
VL: QPVLTQSPSASASLGASVKLTCTLSSQHSTYTIEWYQQQPEKGPRYLMELKKEGSHSTGDGIPDRFSGSSSGAERYLTISSLQSEDEADYYCGVGVTIKEQFVYVFGGGTKLTVL
B2: anti-CD33 antibody 6C7H40 (antibody, V domains shown)
VH: B1 VH
VL: B1 VL with P2L, V3M, E41G, V96H, V105E
B3: anti-CD33 antibody 6C7H35 (antibody, V domains shown)
VH: B1 VH with D33A, T77S, A108T
VL: B1 VL
B4: anti-CD33 antibody 6C7H33 (antibody, V domains shown)
VH: B1 VH with F27S, T77S
VL: B1 VL with P2L, V3M, E41G, V96H
B5: anti-CD33 antibody 6C7H32 (antibody, V domains shown)
VH: B1 VH with F27S, T77S
VL: B1 VL with P2L, V3M, E41G, V96H, V105E
B6: anti-CD33 antibody 6C7H31 (antibody, V domains shown)
VH: B1 VH with F27S, T77S
VL: B1 VL
B7: anti-CD33 antibody 6C7H34 (antibody, V domains shown)
VH: B1 VH with F27S, T77S
VL: B1 VL with V3M, E41G, V96L

Chain of recombinant cynomolgus CD33 protein (NovoProtein) (cynomolgus) (chain, as listed by the source limits assumed): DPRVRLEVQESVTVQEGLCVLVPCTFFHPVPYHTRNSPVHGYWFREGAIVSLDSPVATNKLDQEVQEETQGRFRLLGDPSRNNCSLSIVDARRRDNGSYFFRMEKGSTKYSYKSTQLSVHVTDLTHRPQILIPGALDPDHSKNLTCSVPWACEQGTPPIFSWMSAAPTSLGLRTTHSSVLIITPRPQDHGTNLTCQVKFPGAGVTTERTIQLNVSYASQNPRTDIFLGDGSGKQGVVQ

This test has as its target recombinant cynomolgus CD33 protein (NovoProtein) (cynomolgus). In words: ELISA, plate coated with recombinant CD33. On the technique in general: An ELISA detects its analyte on a solid surface through an enzyme-linked reagent.
On to B1, for which the Relative maximal binding (cyno/human) was found to be 0.02.

For the molecule B2, the Relative maximal binding (cyno/human) is 0.03.

For B3, the Relative maximal binding (cyno/human) amounted to 0.04.

In the case of B4, the Relative maximal binding (cyno/human) is 0.01.

Take B5: the Relative maximal binding (cyno/human) amounted to 0.01.

Take B6: the Relative maximal binding (cyno/human) stood at 0.02.

In the case of B7, the Relative maximal binding (cyno/human) worked out at 0.01.
